Experimental data taken from paper PMC7185751 (Biochimica et Biophysica Acta. Proteins and Proteomics, 2014).
Where two headings read alike, the source gives them in different places. Where a SMILES comes first, the peptide text is derived from it.

Legend:
[1] = system: histidine-57 in α-chymotrypsin; conditions: cited from earlier work
α-chymotrypsin [2] = molecular target: T1, α-chymotrypsin (Bos taurus, UniProt P00766); conditions: from pH 8 to 3, chymotrypsin; cited from earlier work
[3] = 13C-NMR pH titration of free inhibitor; format: physicochemical; conditions: carboxyl group, determined by 13C-NMR
α-chymotrypsin [4] = molecular target: T1, α-chymotrypsin; conditions: from pH 7.2 to 3.2 or 10.2; cited from earlier work
His57 [5] = molecular target: T2, His57 (UniProt position 57, VVTAAHCGVTT); assay: NMR; conditions: 25 °C; hemiketal complex with the glyoxal inhibitor Z-Ala-Ala-Phe-COCHO; cited from earlier work
His57 [6] = molecular target: T2, His57; conditions: cited from earlier work

In the case of `CC(=O)N[C@@H](CC(C)C)C(=O)N[C@H](C=O)Cc1ccccc1` [Acetyl-Leu-Phe-CHO] (Ac-Leu-Phe-aldehyde), the “histidine pKa in the complex with α-chymotrypsin” value [1] is listed as 6.5.
For `O=C[C@H](Cc1ccccc1)NC(=O)c1ccccc1` [Bz-Phe-CHO], the “fold increase in Ki” value (α-chymotrypsin [2]) is listed as 4 fold.
Compound `CC(NC(=O)OCc1ccccc1)C(=O)NC(C)C(=O)NC(Cc1ccccc1)[13C](=O)O` (stereo not drawn) [ZAAF-^13COOH] has a pKa [3] of 3.52 ± 0.03.
For `C[C@H](NC(=O)OCc1ccccc1)C(=O)N1CCC[C@H]1C(=O)N[C@@H](Cc1ccccc1)C(=O)C=O` [ZAPF-COCHO], the “change of hemiketal formation” value (α-chymotrypsin [4]) is listed as “decreases”.
For “alpha-chymotrypsin (Bos taurus (inferred; the article only says commercial alpha-chymotrypsin from Sigma))”, the pKa (His57 [5]) is given as greater than 11, the pKa (His57 [6]; complex with the aldehyde inhibitor Acetyl-Leu-Phe-CHO (hemiacetal)) is given as 6.5 and the pKa (His57 [6]; free enzyme) is given as 6.7.
In the case of “chymotrypsin (activation form not specified in the quoting sentence) (Bos taurus (inferred))”, the pKa (His57 [6]; negatively charged tetrahedral adduct with peptidyl boronic acid inhibitors) is given as greater than 10.
In the case of “delta-chymotrypsin (Bos taurus (inferred))”, the pKa (His57 [6]; free enzyme) is given as 7.5.
